According to patent US20180170984, “SITE-SPECIFIC DNA BASE EDITING USING MODIFIED APOBEC ENZYMES” (Regents of the University of Minnesota, published 2018):

These binders were tested against APOBEC3A D131T (Homo sapiens, UniProt P31941 SEQ:1-199, D131T) (assay: deamination, 50 nM enzyme, 1 h 37 C). Settings: tags: myc-His, 293T; label: 3'-fluorescein.
Chain of APOBEC3A D131T (P31941 whole entry D131T): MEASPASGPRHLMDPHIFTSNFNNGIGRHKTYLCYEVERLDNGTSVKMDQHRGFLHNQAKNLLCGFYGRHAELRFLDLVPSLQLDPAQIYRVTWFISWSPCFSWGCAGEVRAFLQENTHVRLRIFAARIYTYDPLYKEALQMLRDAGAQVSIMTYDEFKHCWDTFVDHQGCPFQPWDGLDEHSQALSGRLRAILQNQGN
Source text: (§1) FIGS. 10A-10C provide corroborating biochemical data for human A3A. FIGS. 10A and 10B show DNA cytosine deamination by human A3A (WT, wild-type) and the indicated mutant derivatives (S, substrate; P, product). The corresponding anti-MYC (A3A) and anti-TUBULIN immunoblots indicated similar levels of A3A and soluble extract in each experiment relative to controls (A3A has two bands due to alternative translation initiation from Met1 or Met13). Reactions in FIG. 10A interrogated active site mutants using a 43-nucleotide 5′-TC-containing ssDNA substrate, and reactions in FIG. 10B additionally interrogated the identity of the −1 position (A, C, G, or T) relative to the target cytosine. The results are representative of two independent experiments. FIG. 10C is a series of graphs quantifying product accumulation in dose response experiments for A3A and the indicated D131 derivatives using the same ssDNA substrates as FIG. 10B.
(§2) Recombinant A3A-myc-His and mutant derivatives were expressed in 293T cells and purified as described by nickel affinity chromatography (Stenglein et al., supra; Li et al., supra; and Carpenter et al. 2012, supra). Activity assays were conducted as outlined above, except reactions were initiated by adding 5 μl of enzyme (2-fold dilutions starting at 200 nM) to 5 μl of 50 mM NaCl, 10 mM HEPES buffer (pH 7.4) containing 1.6 μM fluorescently labeled ssDNA (sequences above). Reactions progressed 1 hour at 37° C. and processed and quantified as described above.
In the case of ATTATTATTATTCAAATGGATTTATTTATTTATTTATTTATTT (ssDNA) [-1 TCA substrate], the activity is reported as 96.6 % product.
Work on ATTATTATTATACAAATGGATTTATTTATTTATTTATTTATTT (ssDNA) [-1 ACA substrate] yielded an activity of 16.6 % product.
Binder ATTATTATTATGCAAATGGATTTATTTATTTATTTATTTATTT (ssDNA) [-1 GCA substrate] has an activity of 14.2 % product.
ATTATTATTATCCAAATGGATTTATTTATTTATTTATTTATTT (ssDNA) [-1 CCA substrate] was tested, and the activity was 67.5 % product.

These binders were tested against APOBEC3A D131A (Homo sapiens, UniProt P31941 SEQ:1-199, D131A) (assay: deamination, 50 nM enzyme, 1 h 37 C). Settings: tags: myc-His, 293T; label: 3'-fluorescein.
Chain of APOBEC3A D131A (P31941 whole entry D131A): as the sequence (P31941 whole entry D131T) above, with T131A counted along it
Source text: as §1, §2
ATTATTATTATTCAAATGGATTTATTTATTTATTTATTTATTT (ssDNA) [-1 TCA substrate] gave an activity of 3.7 % product.
ATTATTATTATACAAATGGATTTATTTATTTATTTATTTATTT (ssDNA) [-1 ACA substrate] was tested, and the activity was 8.7 % product.
Binder ATTATTATTATGCAAATGGATTTATTTATTTATTTATTTATTT (ssDNA) [-1 GCA substrate] has an activity of 4 % product.
ATTATTATTATCCAAATGGATTTATTTATTTATTTATTTATTT (ssDNA) [-1 CCA substrate] gave an activity of 10.1 % product.

What follows are binders tested against APOBEC3A wild-type (Homo sapiens, UniProt P31941 SEQ:1-199) (assay: deamination, 50 nM enzyme, 1 h 37 C). Settings: tags: myc-His, 293T; label: 3'-fluorescein.
Chain of APOBEC3A wild-type (P31941 whole entry): as the sequence (P31941 whole entry D131T) above, with T131D counted along it
Source text: as §1, §2
For ATTATTATTATTCAAATGGATTTATTTATTTATTTATTTATTT (ssDNA) [-1 TCA substrate], the activity was 98.3 % product.
With ATTATTATTATACAAATGGATTTATTTATTTATTTATTTATTT (ssDNA) [-1 ACA substrate] the activity was 7.6 % product.
With ATTATTATTATGCAAATGGATTTATTTATTTATTTATTTATTT (ssDNA) [-1 GCA substrate] the activity was 13 % product.
For ATTATTATTATCCAAATGGATTTATTTATTTATTTATTTATTT (ssDNA) [-1 CCA substrate], the activity was 42.9 % product.

The binders below were run against APOBEC3A D131E (Homo sapiens, UniProt P31941 SEQ:1-199, D131E) (assay: deamination, 50 nM enzyme, 1 h 37 C). Settings: tags: myc-His, 293T; label: 3'-fluorescein.
Chain of APOBEC3A D131E (P31941 whole entry D131E): as the sequence (P31941 whole entry D131T) above, with T131E counted along it
Source text: as §1, §2
Binder ATTATTATTATTCAAATGGATTTATTTATTTATTTATTTATTT (ssDNA) [-1 TCA substrate] has an activity of 27.3 % product.
With ATTATTATTATACAAATGGATTTATTTATTTATTTATTTATTT (ssDNA) [-1 ACA substrate] the activity was 36.6 % product.
ATTATTATTATGCAAATGGATTTATTTATTTATTTATTTATTT (ssDNA) [-1 GCA substrate] was tested, and the activity was 30.8 % product.

These binders were tested against APOBEC3A E72A (1-195) (Homo sapiens, UniProt P31941 SEQ:1-195, E72A) (assay: structure; crystal structure 3.15 Å, PDB 5SWW, U-shaped ssDNA, Zn). Settings: not given.
Chain of APOBEC3A E72A (1-195) (P31941 1-195 E72A): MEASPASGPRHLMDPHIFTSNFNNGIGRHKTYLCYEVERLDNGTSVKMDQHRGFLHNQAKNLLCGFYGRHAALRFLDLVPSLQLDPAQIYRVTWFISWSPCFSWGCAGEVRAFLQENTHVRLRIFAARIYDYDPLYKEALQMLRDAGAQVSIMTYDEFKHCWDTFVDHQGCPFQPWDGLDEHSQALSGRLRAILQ
Method: Purified A3A and A3Bctd* were mixed with ˜1.5 molar excess ssDNA (see below) at a final protein concentration of 25-30 mg ml⁻¹. The A3A-ssDNA complex crystal was obtained in a sitting drop formed by mixing the complex solution with an equal volume of 0.2 M NaF, 20% (w/v) PEG3350, 0.1 M Bis-Tris propane (pH 6.5), equilibrated via vapor diffusion against the same reservoir solution. The A3Bctd*-ssDNA crystal was obtained similarly, using a reservoir solution consisting of 0.45 M NaI and 20% (w/v) PEG3350. The crystals were mounted directly from the Intelli-Plate 96 (Art Robbins Instruments) and flash cooled in liquid nitrogen using glycerol or ethylene glycol as cryo-protectant. X-ray diffraction data were collected at the Advanced Photon Source Northeastern Collaborative Access Team beamline 24-ID-C using the selenium K-absorption edge wavelength, and the data were processed with XDS (Kabsch, Acta Crystallogr D Biol Crystallogr 66:125-132, 2010). The A3A-DNA complex crystal is in the space group of P2221. […] Using monomeric A3A (pdb 4XXO; Bohn et al., Structure 23:903-911, 2015) as a search model, the molecular replacement calculations by PHASER (McCoy et al., J Appl Crystallogr 40:658-674, 2007) located four copies of A3A in the asymmetric unit. […]
AAAAAAATCGGGAAA (ssDNA) [A3A crystallization ligand]: binds.
